B1: HDV Ribozyme (parent)
chain: GGCCGGCAUGGUCCCAGCCUCCUCGCUGGCGCCGGCUGGGCAACAUUCCGAGGGGACCGUCCCCUCGGUAAUGGCGAAUGGGACCCA

This passage reports self-cleavage results from the RNAGym collection of RNA variant scans (doi:10.7554/elife.80360).

In the data set the parent is B1. As to the kind of experiment: self-cleavage, relative activity (ratio to wild type); higher = more cleavage; co-transcriptional.
On to C30G G39C, for which the self-cleavage was found to be 0.131. Turning to G31A C49A, the self-cleavage stood at 0.353.

Take C7U A77C: the self-cleavage came to 0.196. In the case of A16U C48U it was 1.07; in that of C63G A83C, 0.249; in that of C21U C66G, 0.277. C26A G80C: the self-cleavage is 0.348. As for C4A U9G, the self-cleavage worked out at 0.383. With G6A G73C, the self-cleavage turned out to be 0.312. Turning to G29A C32G, the self-cleavage was determined as 0.0219. In the case of U46C C86G it was 0.852; in that of C18G G39A, 0; in that of C30A U37G, 0. Consider C14A G39C, for which the self-cleavage was determined as 0.0615. On to G28U G67U, for which the self-cleavage was determined as 0.137. Turning to G11U C41U, the self-cleavage is 0.358. The same measure for C22G G59C: 0.151; for U37C G39C: 0.177; for A78G G80C: 0.329. As to G5A C44A, the self-cleavage was 0.

On to C24U C33G, for which the self-cleavage came out at 0.166. Consider U69G A77G, for which the self-cleavage worked out at 1.29. With A45G G81U, the self-cleavage came out at 0.208. Consider C14G G52C, for which the self-cleavage was 0.519. Take G6A G35A: the self-cleavage stood at 0.302. In the case of C48A G55A it was 0.972; in that of G5C A87U, 0.175. G5C A87C: the self-cleavage is 0.268.

C13G G82C: the self-cleavage was found to be 0.582.

C49G G59A: the self-cleavage is 1.11. Consider C63U C66A, for which the self-cleavage was determined as 0.978. On to C66G G81C, for which the self-cleavage worked out at 0.193. With C22A G73A, the self-cleavage was found to be 0.0723.

On to C7U A87C, for which the self-cleavage is 0.968. G54C G74C: the self-cleavage was 0.198. Consider G25C G28U, for which the self-cleavage was determined as 0.119. Take G2A C24A: the self-cleavage was determined as 0.0815.

Regarding C58G C85G, the self-cleavage was found to be 0.95. U20A G73A: the self-cleavage was found to be 0.0791. In the case of G10A C19U, the self-cleavage was 0.0326. In the case of A16U G25A, the self-cleavage was found to be 0.0707. In the case of C18A C85G it was 0.0475. On to C32G C85U, for which the self-cleavage was 0.0692. The same measure for C44U G59U: 0.854; for C18G G82U: 0.219; for G28U A45C: 0.148. In the case of C62U A77G it was 0.831; in that of U9G G17U, 0.415; in that of G2A C14A, 0.0804. As to C49G G50C, the self-cleavage is 0.587. The same measure for G10C G67C: 1.01. In the case of G5A C14G, the self-cleavage amounted to 0.0639. On to G10U G38U, for which the self-cleavage came out at 0.0625. U23C G28A: the self-cleavage turned out to be 0.0396.

G1U G17A: the self-cleavage is 0.212. The same measure for C62U U69G: 1.07; for U23C C57A: 0.849; for G35U G81U: 0.156.

Take C19A A56G: the self-cleavage was 0.256. For the variant U23G G76C, the self-cleavage turned out to be 0.684.

With C24G G39C, the self-cleavage was found to be 0.18. With C15A C24G, the self-cleavage stood at 0.032. For U27C G73A, the self-cleavage was 0.231. On to C18U A87U, for which the self-cleavage worked out at 0.853. With G34C C64A, the self-cleavage was 0.0739. In the case of C36G G52A it was 0.271; in that of G35C G82A, 0.147; in that of C4A G52U, 0.213. G59C U60A: the self-cleavage amounted to 1.09.

Take C18G A83U: the self-cleavage stood at 0.101. G2A C64A: the self-cleavage is 0.248. In the case of C26U C62U, the self-cleavage was 1.1. As for U9C G25U, the self-cleavage is 0.104. As to G2A G82U, the self-cleavage was determined as 0.0468. Take U23A C86A: the self-cleavage is 1.21. Take A16G U20C: the self-cleavage amounted to 0.128.

On to U27A U65G, for which the self-cleavage came to 1.12. For the variant U47G C75U, the self-cleavage was determined as 0.305. Consider C24A C75U, for which the self-cleavage worked out at 0.169. As to G11A U37C, the self-cleavage is 0.381. In the case of U20A G52A it was 0.0415; in that of C33U G68A, 0.796. For the variant C7A C44G, the self-cleavage was 0.0594. A42C U47C: the self-cleavage is 0.0791. For C62G A77C, the self-cleavage was determined as 0.353. As for C30A G67C, the self-cleavage was found to be 0.318. As to C62A C86U, the self-cleavage worked out at 1.03. Consider G40A A42G, for which the self-cleavage is 0.475.

As to C32A C33U, the self-cleavage was 0.0779. As for G2U A71C, the self-cleavage is 0.0161. The same measure for C30A U65C: 0.644; for U65A G76U: 1.04.

For the variant C26G A87G, the self-cleavage came out at 1.07. G52U U79C: the self-cleavage worked out at 0.59. As for C13A G76A, the self-cleavage was 0.199.

In the case of G1C G68U, the self-cleavage is 0.17.

As to U20A G34A, the self-cleavage worked out at 0.0992.

For A45C A78C, the self-cleavage was 0.135.

As to G28U A87G, the self-cleavage was found to be 0.0817. With G74C G80A, the self-cleavage was 0.227.

Take U65A G80A: the self-cleavage was 0.201.

Regarding C57U G76U, the self-cleavage came to 0.906. As to G35U G76C, the self-cleavage was 0.62.

C32A G40A: the self-cleavage came out at 0.242. The same measure for A83G C85U: 0.9; for C19G C85G: 0.111; for C36A A70U: 0.163.

For the variant U37C C62G, the self-cleavage was determined as 0.0723.

Consider G5C C57U, for which the self-cleavage was 0.185.

As to U27C U65C, the self-cleavage is 0.798. In the case of C36A A56U it was 0.229. Consider U65A G68A, for which the self-cleavage is 0.641. As for A43G G53A, the self-cleavage amounted to 0.532.

G1U C84U: the self-cleavage was 0.389. The same measure for A51G G82C: 0.322; for G53C C84G: 0.696; for C4A A77U: 0. With C15U A83G, the self-cleavage was 0.45. Regarding G28U G80U, the self-cleavage stood at 0.1. Turning to G6C A16G, the self-cleavage worked out at 0.151. On to U46A G82C, for which the self-cleavage was found to be 0. The same measure for C62A G74U: 0.367; for G35A U65A: 0.61.

With G5A C22A, the self-cleavage stood at 0.0426. As to G68U A78C, the self-cleavage was 0.161.

Take C36G G55A: the self-cleavage amounted to 0.117. C49U U60G: the self-cleavage stood at 0.939. In the case of C18G A78G it was 0; in that of C15G A16G, 0.665. For C24U C85G, the self-cleavage came to 0.629.

On to U27C A42C, for which the self-cleavage is 0.431. As for C13A G39C, the self-cleavage is 0.0554. On to C4U G81C, for which the self-cleavage came out at 0.135.

With C15U G54A, the self-cleavage came out at 0.776. In the case of C22U C64A it was 0.786; in that of G55A G80U, 0.13. As for C32A A83G, the self-cleavage came to 0.152. With G17A C66U, the self-cleavage was 0.607. On to G38U U72A, for which the self-cleavage is 0.0378. As to C24G C63A, the self-cleavage was 0.18.

For the variant C26U U60A, the self-cleavage turned out to be 1.05.

As to C26U U69G, the self-cleavage worked out at 0.96. The same measure for C4U G29C: 0.0396; for G1C U20A: 0.

With U27A C33U, the self-cleavage amounted to 1.01. As to G5A G6A, the self-cleavage turned out to be 0. With G35A A77G, the self-cleavage came to 0.277.

For G39A A56U, the self-cleavage was determined as 0.676. With C61A A77C, the self-cleavage was 0.527.

In the case of A42U A56C, the self-cleavage came to 0.629. Take C58G C62A: the self-cleavage came to 0.796. For U12G C32A, the self-cleavage turned out to be 0.0639. Regarding G25A G40U, the self-cleavage came out at 0.161.

For the variant C14A U23A, the self-cleavage worked out at 0.575. With G38C A77C, the self-cleavage was 0.177.

Regarding C22U C44A, the self-cleavage came out at 0.0898. C24G C49U: the self-cleavage came out at 0.115.

Consider C21U U47A, for which the self-cleavage amounted to 0.363. In the case of C36G G68U it was 0.0615.

On to G52A G82C, for which the self-cleavage is 0.362. Take G52A G82A: the self-cleavage stood at 0.439.

Turning to G5C A16G, the self-cleavage was found to be 0.145. For the variant U47G C57G, the self-cleavage is 1.22. Take A51U G82A: the self-cleavage came out at 0.543. Regarding C13G A71U, the self-cleavage stood at 0. Turning to A56C C85U, the self-cleavage was 1.01. On to A8U G17U, for which the self-cleavage stood at 0.18.
